Source: the domain aggregation screens of Martell et al. (2025)

Assay: soluble fraction after stress (log2 fold change); higher = more stays soluble; pooled small domains, quantitative proteomics
Details: stress: 50 degC
Summary of the method: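 The measure of aggregation propensity here is the base-two logarithm of the fold change in the soluble amount of each protein after stress. A higher value means more of that protein stays in solution. Stress was applied at 50°C to pooled libraries of small protein domains, read out by high-throughput quantitative proteomics.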

Sequence | soluble fraction (log2)
HMEEQGLPLVIISDGKVLAQNLTLRSLDRAWLQDQLTQHGHSKPEQVFLLTVDERGAVYYVPKE | -0.37
HMNTKQRTAVMRILKQSSDPVSADDVFAALKDEYPSLALSTVYRNLERFADESMVKKDVWSDGIVRYSLAD | -0.189
HMSPSRRENLTAAAKEYFVNTQIRHKTFGNGVIIKRSGNIAAIRFDNGTIKQIDLIAALQAKVLSIL | 0.168
HMEHTPYLTEREADVVRLLVSGLDTAQIAQRLGIKTATVTAHKKHIFLKIGVRNTTQLVAWALIR | -2.34
HMVNINEVEVSRDLAHAKVFVTFVGDRTDEINTQALKVLNAAQGFLRSRIASNNHMRTTPRIHF | -0.663
HMALTAEVLRSLIKHHGLGQSIQRTAKAVGLSASTVKKYFDRIAAANLTWQEAKSRTQEELIASLQPT | -0.358
HMIQKTHPALEIVKEYFSSQAASEFEAERFFNYYTSNGWLIGGKTKMKDWQAAARNWILNTAK | -0.199
HMATYDIDALKVDLPSAKELAQFVYDKTDGLVSLDLIGKPKEEQYIVAKNALEGKKVPAEYLTGFNPY | 0.202
HMLEIGRYNTLTVLRKVDFGYYLDGLDYGDILMPAKYAATELEAGDEVDVFIYLDSSEKLIATTETPIAQ | -3.38
HMSASSDATRQRVLRAAEQLFGAKGVENVSLREMTTLAGVNLAAVNYHFGSKDALAEAVFEALSER | 0.41
HMQIIGEQNQKDFIALFGAILRMRNLLLSFDEFKGNELISERDLQDYLGRYQDLRDEWRNKRRER | 0.0518
HMKIPQFAVIKQYLEQQIKTAQWAPGRQIPTEQSLADTFSVSRMTARRAVQQLADAGLLERTQGSGTFVAD | -0.145
HMYTVKELSRLTGLTPRTLRYYDAIGLLSPARNRDNDYRLYGGAEVDRLQEILLYREMGLPLEEIGRILD | -1.45
HMTILKEGMSGPEVERLQDALKRHGFDPGRVDGQFGPGTEAAILAFQKSEGLRADGVAGPKTQQALGLE | 0.131
HMSWGDVKLTMWGAEEDQTMLREMADAFIEQNADKGNVTIEIGVQSESSAKDTVLADPESAADVFA | 0.00693
HMSLEDNEVIQRMKVILDRFDEETAVDRTTAFKAVLDHIGKMDAESKTLEHMAEMLEALLDKVLEE | -0.237
HMNKYQFESKIHIYRATKRMTQQELADLVGVSRQTIMQLERNRYNPSMMLAYGIAKVFDVTIEDLFDFSEV | -2.05
HMRIQLNFSDQLLDDVMSEALKHIDRKSQEHHIEKQMDDEFMLVYIDARLIIQVIVNIINNAIKY | -0.00268
HMKSNIGENIRQLREKREMSVERVARMLEVKPATVIGWESGRELPEPAELGLLAKLFDVTVEELN | 0.106

Sequence | soluble fraction (log2)
HMKNELNSKLIISIKEALPPQIKVATYLMDLLSLGREAVYRRIRGDVSFDLEELSIISKALNISIDDVL | -4.15
HMTEKIEWYKEVLDLEPNSKIFFPLAKMLEKEGELEEARRVLAEGVSRHEEFLEARLFYISVLSRL | -0.169
HMYAVQKGDTLKKIADQFGISVDTIKWANDMKGDALSIDQELKIP | 0.057
HMSNYYNILGVNKSSTQDEIKKAFRKKAVEHHPDKGGNEATFKKINEAYNTLSDNNKRHMYDMQQSG | 0.213
HMQSANQLIKLSRKRKGLTQQELADQAGVSLRTVQRIEKGTEEISGFSLKQISQILEIPLEQLIM | -0.146
HMGNNTEITYSEFIRQAEAGNVQYVTVDGEKLLISATDGKSYYTINPRDDQMTDRLLNSGVEIRAEPQ | 0.101
HMQTRIDISDAVLQWVVRKTQFAALPPKAAAHLTKWVRGEKKPTFNQLEEVSKATGIPLGYFFLQQPPHE | -0.776
HMETLTPQEHKVLLLAVKGRTNGEIASELGIAQNTVKNHLAHIYAKMGVGNRTELASEYLRRIH | 0.0726
HMIKLSEAEWKVMKLLWEESPKTMMQITNLLKETTGWTKHTVMTFLKRMEEKKAIHYEEGGRAKLYYP | -0.589
HMSIMNLSEKIVVLRKSNGMSQEELAEKLYVSRQAVSRWEMGTAVPDSTNILQLGKLFHVTTDYLLNDEYE | -3.19
HMIPYQDPLPKGAEESLLSKYPGFEITGVHFVNDTNFIGYKVRLERGEDREEISLDVNGKFL | 0.0829
HMQVSDAAQLAEVVKTVLAENPAAVGDYRKGKKAAIGFLLGQVMRHMRGTANPAVARQLLEQALEDE | 0.0337
HMEVTYQETLRVLYNAIDKLPPQTKEIILIGLDGKDNNEIAATLNISVNTVKTLKKNAYKTLRELLVD | -0.157
HMEKIYLISDAAKQVNVEAHVLRYWEEELDIPAKRNELGHRYYTQEDIETFRKVKELKAQGIQLKGIKNIL | 0.123
HMGVGTTDERLAVLNQIASRQTEALEKLGPNNPLVGLGQIRNTLSKMLEISGYPDSNQFFKQVPLDYEPPP | 0.173
HMKFGETLIDLRKRNGLTQEELAAKLYVTRQAVSRWERGEVTPGIDMLKLIANVLNEPVAHLLDW | -0.977
HMGDKRPIAVGDYVKLEGQDTPGQVLSISGKNATVGFGMLKTTVKLDRLRHTMAKPQTGASAGVR | 0.178
HMNMEDIADKIGRLYDNLPDDLKLMIKYRDIDDMTYDEIARKANLPIGTVRSRLHRARDILLREI | -0.647
HMDMAENEEYKVIMGQAQQLAEQFFPADDNTRRIMLGQLKLENYSLYLLTKQILDEATKGQAAAAN | 0.0229

Sequence | soluble fraction (log2)
HMFDPAKQMQRIRKYAGMNRKEFSEWLNIPYRTMTDWELGNRTMPVYLLELIVYKVNHEIANA | 0.186
HMDVYKRQKLRNFIESLFEDAPKNKQTIELKEEMLQNLIDKYNDLVDSGKSSEAAYNIATAS | -0.0392
HMDEPADVAIFDGFRQMSEDELKKLYESLNLAMTFKDFLHIQNYFKNEENREPSVTEIRVLDTYWSDH | 0.174
HMSSESIIIKKLIEEFIHNENKYSPLSDEKLSYLLKNKGFSVARRTVAKYRDELGILSTRERKIKI | -0.745
HMGSAKAQLYDLMNAHQVTRNQIQDIVAEKGYFPAGTPIENYPDDFVKGVLVGAWDQVHKAILDKEI | 0.0946
HMALPASLSPREREIVSLISQGKTNSEIASLLYISVPTVKTHISNIFQKTGVSNRTSLLNRLRMS | -0.164
HMVFTEEERAEYREKMLDAGFDLLKQYGMTHMSVAKITEAAGIGVSTFYNFFSSKEEYVYEVLQYRRRK | -1.25
HMNPTTDFFKLEGIDATRILVFDQVGRQVAQFSQPAQQMDIQALPAGVYALRIENADGQVYSARIVK | -0.16
HMHLNVYRDEDEAMLAFKDHLIGTHQPIRVRVEKALPDGTMGHKIVDTTIGRIVFNHNIPQD | -0.189
HMSHFSERLKSLRQQSSITQAKLADDLNVTKSLISMYESGQRLPSFEMLETIADYFNVPLSSLV | -0.089
HMTMKNPNGYGSVINLGKGRRRPWAARVTTGLVYDEKKDKLIQRYKYIGYADTRKEAHQILAEYNAGLPI | -1.43
HMQSLPFSFAKRHGVLLKSINHLHGEAVYRIGANPLSLSEVQRYAGVPLKLSSITVEKFDRLLQETYEHD | -1.14
HMKIKAKYTTDFGIRIYAPKPGKNYWRISYVDLDGKLRDTTATSEKTALDKSAEIEVLLRNN | -1.89
HMKVSFEIEINGVTKSINSINEAKEAISELQDIMDNSTFGSEEFKNAATQIDKLQNKLVEALDK | -0.0374
HMNIQGIFGRNLKQKRLEKGMTQEQLAEKAGVSTDTVKRYESGKYDGIRLDMAWYMANALDTPLQALLPP | 0.367
HMNFTKHPENPNFVVYRFTDPERANSFRAELIANNISFEEDTEKKKQLIYTLFAIHTKYYNQSMQINIK | -0.463
HMAATVKVPDLTKMTPDEAQRALGQVGLKGKQGDDVDDDSVPVGYIAKQDEAPNSDAKAGDTITYHL | 0.16
HMTKQNVVPLMYRMIDTLEQFIKADVPFNIETRLARVERLRETMVSSSVTTSEKFRQVLEAYTIETD | -0.924
